Assay results from publication PMC5143422 (Cell Research, 2016).

Tests used:
[1] = target: FabZ (β-hydroxyacyl-ACP dehydratase) from Helicobacter pylori (Helicobacter pylori) (UniProt O25928); experiment: MST
[2] = target: FabZ (β-hydroxyacyl-ACP dehydratase) from Helicobacter pylori (Helicobacter pylori) (UniProt O25928); experiment: SEC-MALS
[3] = target: the molecule itself; experiment: SEC-MALS

Sequence of holo-acyl carrier protein (holo-ACP) from Helicobacter pylori (natural protein) (B2UTR8 whole entry): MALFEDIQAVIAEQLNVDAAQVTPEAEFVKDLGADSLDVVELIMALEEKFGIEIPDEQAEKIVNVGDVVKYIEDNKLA

Molecule | KD, first phase of the triphasic binding curve [1] [µM] | KD, second phase of the triphasic binding curve [1] [µM] | KD, third phase of the triphasic binding curve [1] [µM] | stoichiometry N (holo-ACP per FabZ hexamer) [2] | stoichiometry N [3]
holo-acyl carrier protein (holo-ACP) from Helicobacter pylori (natural protein) | 0.354 | 16.2 | 297 | 3 | 
FabZ (β-hydroxyacyl-ACP dehydratase) from Helicobacter pylori (enzyme, fluorescence dye NT-647 (amine-reaction) in the MST assay only) MEQSHQNLQSQFFIEHILQILPHRYPMLLVDRIIELQANKKIVAYKNITFNEDVFNGHFPNKPIFPGVLIVEGMAQTGGFLAFTSLWGFDPEIAKTKIVYFMTIDKVKFRIPVTPGDRLEYHLEVLKHKGMIWQVGGTAQVDGKVVAEAELKAMIAER |  |  |  |  | 6
